# Residue numbers refer to the chain shown, from its start.
# B1: IER2 S14: IER2, S14 to alanine (protein, UniProt Q9BTL4 1-223, looked up, variant S14A)
# Immediate early response gene …: MEVQKEAQRIMTLAVWKMYHSRMQRGGLRLHRSLQLSLVMRSARELYLSAKVEALEPEVSLPAALPSDPRLHPPREAESTAETATPDGEHPFPEPMDTQEAPTAEETSACCAPRPAKVSRKRRSSSLSDGGDAGLVPSKKARLEEKEEEEGASSEVADRLQPPPAQAEGAFPNLARVLQRRFSGLLNCSPAAPPTAPPACEAKPACRPADSMLNVLVRAVVAF
# B2: IER2 R32: IER2, R32 to alanine (protein, UniProt Q9BTL4 1-223, looked up, variant R32A)
# Immediate early response gene …: B1 Immediate early response gene … with A14S, R32A
# B3: IER2 Q24: IER2, Q24 to alanine (protein, UniProt Q9BTL4 1-223, looked up, variant Q24A)
# Immediate early response gene …: B1 Immediate early response gene … with A14S, Q24A
# B4: IER2 R25: IER2, R25 to alanine (protein, UniProt Q9BTL4 1-223, looked up, variant R25A)
# Immediate early response gene …: B1 Immediate early response gene … with A14S, R25A
# B5: IER2 M23: IER2, M23 to alanine (protein, UniProt Q9BTL4 1-223, looked up, variant M23A)
# Immediate early response gene …: B1 Immediate early response gene … with A14S, M23A
# B6: IER2 H31: IER2, H31 to alanine (protein, UniProt Q9BTL4 1-223, looked up, variant H31A)
# Immediate early response gene …: B1 Immediate early response gene … with A14S, H31A
# B7: IER2 Q8: IER2, Q8 to alanine (protein, UniProt Q9BTL4 1-223, looked up, variant Q8A)
# Immediate early response gene …: B1 Immediate early response gene … with Q8A, A14S
# B8: IER2 G27: IER2, G27 to alanine (protein, UniProt Q9BTL4 1-223, looked up, variant G27A)
# Immediate early response gene …: B1 Immediate early response gene … with A14S, G27A
# B9: IER2 L13: IER2, L13 to alanine (protein, UniProt Q9BTL4 1-223, looked up, variant L13A)
# Immediate early response gene …: B1 Immediate early response gene … with L13A, A14S
# B10: IER2 L30: IER2, L30 to alanine (protein)
# chain: B1 Immediate early response gene … with A14S, L30A
# B11: IER2 I10: IER2, I10 to alanine (protein, UniProt Q9BTL4 1-223, looked up, variant I10A)
# Immediate early response gene …: B1 Immediate early response gene … with I10A, A14S
# B12: IER2 S33: IER2, S33 to alanine (protein, UniProt Q9BTL4 1-223, looked up, variant S33A)
# Immediate early response gene …: B1 Immediate early response gene … with A14S, S33A
# B13: IER2 R29: IER2, R29 to alanine (protein, UniProt Q9BTL4 1-223, looked up, variant R29A)
# Immediate early response gene …: B1 Immediate early response gene … with A14S, R29A
# B14: IER2 L36: IER2, L36 to alanine (protein, UniProt Q9BTL4 1-223, looked up, variant L36A)
# Immediate early response gene …: B1 Immediate early response gene … with A14S, L36A
# B15: IER2 M11: IER2, M11 to alanine (protein, UniProt Q9BTL4 1-223, looked up, variant M11A)
# Immediate early response gene …: B1 Immediate early response gene … with M11A, A14S
# B16: IER2 T12: IER2, T12 to alanine (protein, UniProt Q9BTL4 1-223, looked up, variant T12A)
# Immediate early response gene …: B1 Immediate early response gene … with T12A, A14S
# B17: IER2 K17: IER2, K17 to alanine (protein)
# chain: B1 Immediate early response gene … with A14S, K17A
# B18: IER2 R9: IER2, R9 to alanine (protein, UniProt Q9BTL4 1-223, looked up, variant R9A)
# Immediate early response gene …: B1 Immediate early response gene … with R9A, A14S
# B19: IER2 L34: IER2, L34 to alanine (protein)
# chain: B1 Immediate early response gene … with A14S, L34A
# B20: IER2 G26: IER2, G26 to alanine (protein, UniProt Q9BTL4 1-223, looked up, variant G26A)
# Immediate early response gene …: B1 Immediate early response gene … with A14S, G26A
# B21: IER2 L28: IER2, L28 to alanine (protein, UniProt Q9BTL4 1-223, looked up, variant L28A)
# Immediate early response gene …: B1 Immediate early response gene … with A14S, L28A
# B22: IER2 S37: IER2, S37 to alanine (protein, UniProt Q9BTL4 1-223, looked up, variant S37A)
# Immediate early response gene …: B1 Immediate early response gene … with A14S, S37A
# B23: IER2 V15: IER2, V15 to alanine (protein, UniProt Q9BTL4 1-223, looked up, variant V15A)
# Immediate early response gene …: B1 Immediate early response gene … with A14S, V15A
# B24: IER2 Q35: IER2, Q35 to alanine (protein, UniProt Q9BTL4 1-223, looked up, variant Q35A)
# Immediate early response gene …: B1 Immediate early response gene … with A14S, Q35A
# B25: IER2 W16: IER2, W16 to alanine (protein, UniProt Q9BTL4 1-223, looked up, variant W16A)
# Immediate early response gene …: B1 Immediate early response gene … with A14S, W16A
# B26: PME1 M8: PME1, M8 to alanine (protein, UniProt Q9Y570 2-386, looked up, variant M8A)
# Protein phosphatase …: SALEKSAHLGRLPSRPPLPGSGGSQSGAKMRMGPGRKRDFSPVPWSQYFESMEDVEVENETGKDTFRVYKSGSEGPVLLLLHGGGHSALSWAVFTAAIISRVQCRIVALDLRSHGETKVKNPEDLSAETMAKDVGNVVEAMYGDLPPPIMLIGHSMGGAIAVHTASSNLVPSLLGLCMIDVVEGTAMDALNSMQNFLRGRPKTFKSLENAIEWSVKSGQIRNLESARVSMVGQVKQCEGITSPEGSKSIVEGIIEEEEEDEEGSESISKRKKEDDMETKKDHPYTWRIELAKTEKYWDGWFRGLSNLFLSCPIPKLLLLAGVDRLDKDLTIGQMQGKFQMQVLPQCGHAVHEDAPDKVAEAVATFLIRHRFAEPIGGFQCVFPGC
# B27: PME1 S7: PME1, S7 to alanine (protein, UniProt Q9Y570 2-386, looked up, variant S7A)
# Protein phosphatase …: B26 Protein phosphatase … with S6A, A7M
# B28: PME1 L10: PME1, L10 to alanine (protein, UniProt Q9Y570 2-386, looked up, variant L10A)
# Protein phosphatase …: B26 Protein phosphatase … with A7M, L9A
# B29: PME1 H9: PME1, H9 to alanine (protein, UniProt Q9Y570 2-386, looked up, variant H9A)
# Protein phosphatase …: B26 Protein phosphatase … with A7M, H8A
# B30: PME1 L4: PME1, L4 to alanine (protein, UniProt Q9Y570 2-386, looked up, variant L4A)
# Protein phosphatase …: B26 Protein phosphatase … with L3A, A7M
# B31: PME1 G11: PME1, G11 to alanine (protein, UniProt Q9Y570 2-386, looked up, variant G11A)
# Protein phosphatase …: B26 Protein phosphatase … with A7M, G10A
# B32: PME1 R12: PME1, R12 to alanine (protein, UniProt Q9Y570 2-386, looked up, variant R12A)
# Protein phosphatase …: B26 Protein phosphatase … with A7M, R11A
# B33: PME1 E5: PME1, E5 to alanine (protein, UniProt Q9Y570 2-386, looked up, variant E5A)
# Protein phosphatase …: B26 Protein phosphatase … with E4A, A7M
# B34: PME1 K6: PME1, K6 to alanine (protein, UniProt Q9Y570 2-386, looked up, variant K6A)
# Protein phosphatase …: B26 Protein phosphatase … with K5A, A7M
# B35: RBM7 M147: RBM7, M147 to alanine (protein, UniProt Q9Y580 2-266, looked up, variant M147A)
# RNA-binding protein 7: GAAAAEADRTLFVGNLETKVTEELLFELFHQAGPVIKVKIPKDKDGKPKQFAFVNFKHEVSVPYAMNLLNGIKLYGRPIKIQFRSGSSHAPQDVSLSYPQHHVGNSSPTSTSPSRYERTMDNMTSSAQIIQRSFSSPENFQRQAVANSALRQMSYGGKFGSSPLDQSGFSPSVQSHSHSFNQSSSSQWRQGTPSSQRKVRMNSYPYLADRHYSREQRYTDHGSDHHYRGKRDDFFYEDRNHDDWSHDYDNRRDSSRDGKWRSSRH
# B36: RBM7 R152: RBM7, R152 to alanine (protein, UniProt Q9Y580 2-266, looked up, variant R152A)
# RNA-binding protein 7: B35 RNA-binding protein 7 with A146M, R151A
# B37: RBM7 N148: RBM7, N148 to alanine (protein, UniProt Q9Y580 2-266, looked up, variant N148A)
# RNA-binding protein 7: B35 RNA-binding protein 7 with A146M, N147A
# B38: RBM7 L151: RBM7, L151 to alanine (protein, UniProt Q9Y580 2-266, looked up, variant L151A)
# RNA-binding protein 7: B35 RNA-binding protein 7 with A146M, L150A
# B39: RBM7 S149: RBM7, S149 to alanine (protein, UniProt Q9Y580 2-266, looked up, variant S149A)
# RNA-binding protein 7: B35 RNA-binding protein 7 with A146M, S148A
# System: PP2A-B55α
# Assay: Single alanine mutational scan, YFP-tagged interactors immunoprecipitated from HeLa cells, Western blot
# Format: binding, human
# Conditions: single alanine mutant of YFP-tagged IER2
# Protocol: Standard cloning techniques were used throughout. Point mutations were introduced by whole plasmid polymerase chain reaction (PCR). All constructs were fully sequenced. Synthetic DNA was purchased from GeneArt, Life Technologies and cloned into pcDNA5/FRT/TO (Invitrogen) expression vector containing YFP, resulting in the indicated YFP fusion proteins. These constructs were transiently transfected into HeLa cells 24 hours before harvesting cells. Cells were lysed in lysis buffer [50 mM tris-HCl (pH 7.5), 50 mM NaCl, 1 mM EDTA, 1 mM […], and 0.1% NP-40]. Complexes were immunoprecipitated at 4°C in lysis buffer with green fluorescent protein (GFP)–Trap (ChromoTek) and washed in lysis buffer. Precipitated protein complexes were washed three times in lysis buffer, eluted in 2× SDS sample buffer, and subjected to Western blotting or MS as indicated.
row,Molecule,Experimental % binding [%]
1,B1,83
2,B2,70
3,B3,118
4,B4,76
5,B5,94
6,B6,61
7,B7,90
8,B8,77
9,B9,80
10,B10,81
11,B11,81
12,B12,58
13,B13,90
14,B14,66
15,B15,81
16,B16,94
17,B17,10
18,B18,78
19,B19,74
20,B20,87
21,B21,102
22,B22,62
23,B23,91
24,B24,67
25,B25,100

# Same assay, conditions: single alanine mutant of YFP-tagged PME1
row,Molecule,Experimental % binding [%]
1,B26,2
2,B27,220
3,B28,52
4,B29,88
5,B30,1
6,B31,108
7,B32,10
8,B33,108
9,B34,2

# Same assay, conditions: single alanine mutant of YFP-tagged RBM7
row,Molecule,Experimental % binding [%]
1,B35,9
2,B36,62
3,B37,29
4,B38,47
5,B39,109
